Measurements taken from patent US20020164732A1.

What was measured:
[1] = target: HsdM subunit encoded by the chromosome of the IL1403 strain (L. lactis ssp lactis (strain IL1403)); assay: cell-based or functional assay
[2] = target: HsdR subunit encoded by the chromosome of the IL1403 strain (L. lactis ssp lactis (strain IL1403)); assay: cell-based or functional assay
Chain of HsdR subunit encoded by the chromosome of the IL1403 strain (L. lactis ssp lactis (strain IL1403)) (chain, as listed by the source limits assumed): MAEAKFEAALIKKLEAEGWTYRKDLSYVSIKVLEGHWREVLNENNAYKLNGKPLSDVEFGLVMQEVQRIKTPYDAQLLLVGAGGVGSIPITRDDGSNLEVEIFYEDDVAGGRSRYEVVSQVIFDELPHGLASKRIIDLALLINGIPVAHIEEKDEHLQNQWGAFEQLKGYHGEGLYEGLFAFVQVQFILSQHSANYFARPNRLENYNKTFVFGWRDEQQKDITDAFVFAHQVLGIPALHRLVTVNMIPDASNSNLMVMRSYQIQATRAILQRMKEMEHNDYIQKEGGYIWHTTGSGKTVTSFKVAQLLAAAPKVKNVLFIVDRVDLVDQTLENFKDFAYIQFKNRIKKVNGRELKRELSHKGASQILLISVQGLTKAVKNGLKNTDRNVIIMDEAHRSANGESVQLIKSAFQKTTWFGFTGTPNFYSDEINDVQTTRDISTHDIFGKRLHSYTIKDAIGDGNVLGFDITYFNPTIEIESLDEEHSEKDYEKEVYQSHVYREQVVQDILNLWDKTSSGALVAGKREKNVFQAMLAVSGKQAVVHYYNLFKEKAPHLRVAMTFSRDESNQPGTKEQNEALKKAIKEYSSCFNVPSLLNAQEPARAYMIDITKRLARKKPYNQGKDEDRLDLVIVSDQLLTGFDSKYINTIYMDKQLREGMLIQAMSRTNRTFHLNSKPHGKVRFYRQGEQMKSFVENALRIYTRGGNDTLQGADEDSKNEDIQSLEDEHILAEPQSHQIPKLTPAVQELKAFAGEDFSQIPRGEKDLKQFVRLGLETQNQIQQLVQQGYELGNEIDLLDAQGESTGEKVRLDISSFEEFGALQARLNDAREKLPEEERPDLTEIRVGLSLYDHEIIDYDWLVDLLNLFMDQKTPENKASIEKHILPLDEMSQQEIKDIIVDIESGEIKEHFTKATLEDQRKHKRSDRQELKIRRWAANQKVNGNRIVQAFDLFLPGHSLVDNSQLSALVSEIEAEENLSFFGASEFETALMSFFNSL

Chain of HsdM subunit encoded by the chromosome of the IL1403 strain (L. lactis ssp lactis (strain IL1403)) (chain, as listed by the source limits assumed): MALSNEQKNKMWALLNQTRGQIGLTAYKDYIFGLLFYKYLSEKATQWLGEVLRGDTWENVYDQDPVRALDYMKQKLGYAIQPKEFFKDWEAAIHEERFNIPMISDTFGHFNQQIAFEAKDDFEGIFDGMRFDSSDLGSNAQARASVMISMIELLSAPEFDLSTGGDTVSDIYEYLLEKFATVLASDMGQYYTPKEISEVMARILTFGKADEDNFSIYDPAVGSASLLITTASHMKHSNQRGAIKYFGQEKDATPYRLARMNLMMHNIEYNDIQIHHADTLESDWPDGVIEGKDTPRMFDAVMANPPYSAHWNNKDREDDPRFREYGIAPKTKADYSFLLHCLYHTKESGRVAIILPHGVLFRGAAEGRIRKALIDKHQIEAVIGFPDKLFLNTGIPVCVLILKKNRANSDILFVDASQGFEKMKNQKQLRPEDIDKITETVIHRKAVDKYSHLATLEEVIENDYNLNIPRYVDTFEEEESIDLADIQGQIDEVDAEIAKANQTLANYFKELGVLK

HsdS subunit encoded by the pIL7 plasmid
EOP (efficacy of propagation) of bIL67 phage on IL1403 transformed with pIL7, against IL1403 without plasmids [1]: 0.006
EOP (efficacy of propagation) of bIL67 phage on IL1403 transformed with pIL7, against IL1403 without plasmids [2]: 0.006

HsdS subunit encoded by the pIL261 plasmid (orf2 of the 3.7 kb EcoRI insert from pIL103)
EOP (efficacy of propagation) of bIL67 phage on IL1403 transformed with pIL261, against IL1403 without plasmids [1]: 6e-07
EOP (efficacy of propagation) of bIL67 phage on IL1403 transformed with pIL261, against IL1403 without plasmids [2]: 6e-07
